Reference: patent US20100279930A1 (published 2010)
No end group written: not given here.

B1: 4057260 (protein)
chain: CAPLEPEYPGDDATPQQMAKYAADLRRYINKLTRPRYCAPLEPEYPGDDATPQQMAKYAADLRRYINKLTRPRY

These binders were tested against T1, human Y4 receptor (human, UniProt P50391 1-375) (assay: 125I-PP displacement).
T1 sequence (P50391 whole entry): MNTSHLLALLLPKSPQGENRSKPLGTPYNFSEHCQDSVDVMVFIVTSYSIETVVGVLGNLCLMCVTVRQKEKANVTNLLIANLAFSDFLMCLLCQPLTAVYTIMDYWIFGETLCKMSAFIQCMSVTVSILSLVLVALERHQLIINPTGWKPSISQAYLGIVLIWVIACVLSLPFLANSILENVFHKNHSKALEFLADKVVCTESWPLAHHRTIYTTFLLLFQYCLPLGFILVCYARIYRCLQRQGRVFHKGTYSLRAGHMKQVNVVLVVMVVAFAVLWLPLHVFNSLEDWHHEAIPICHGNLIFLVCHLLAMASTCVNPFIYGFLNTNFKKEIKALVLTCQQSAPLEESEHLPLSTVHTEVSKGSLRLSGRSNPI

Question: Which IC50 does the source give for B1 here?
Answer: The IC50 was 0.209 nM.

Question: How did the IC50 turn out when EPLEPEYPGDDATPQQMARYAAELRRYINKLTRPRY [4057274] was run?
Answer: The IC50 was 0.103 nM.

Question: For GAPLEPVYPGDNATPEQMARYAADLRRYINKLTRPRY [4057336], which IC50 is on record?
Answer: Its IC50 is 0.09 nM.

Question: For HAPLEPVYPGDNATPEQMARYAAELRRYINKLTRPRY [4057228], which IC50 is on record?
Answer: Its IC50 is 0.068 nM.

Question: DAPLEPVYPGDNATPEQMARYAADLRRYINKLTRPRY [4057337] was tested. Which IC50 did it give?
Answer: The IC50 was 0.109 nM.

Question: For PAPLEPVYPGDNATPEQMAKYAADLRRYINKLTRPRF [4057235], which IC50 is on record?
Answer: The IC50 was 0.059 nM.

Question: Which IC50 does the source give for PAPLEPVYPGDNATPEQMAHYAAELRRYINKLTRPRY [4057152] here?
Answer: The IC50 was 0.141 nM.

Molecular target: T1, human Y4 receptor
Assay: 125I-PP displacement
Remark: another data set of the same source

Question: With GAPLEPTYPGDNATPEQLAKYAAELRRYINKLTRPRY [4060207] as the binder, how does the IC50 read?
Answer: The IC50 was 0.09 nM.

Question: Which IC50 does the source give for PAPLKPTYPGDNATPEQLAKYAAELRRYINKLTRPRY [4059864] here?
Answer: The IC50 was 0.07 nM.

Question: How did the IC50 turn out when GAPLEPEYPGDNATPEQKAKYAAALRRYINHLTRPRY [4060274] was run?
Answer: The IC50 was 0.128 nM.

Question: With GAPLEPVYPGDNATPEELARYAAELRRYINKLTRPRY [4060134] as the binder, how does the IC50 read?
Answer: The IC50 was 0.143 nM.

Question: For GAPLEPKYPGDDATPEELAKYAAELRRYINKLTRPRY [4060142], which IC50 is on record?
Answer: Its IC50 is 0.143 nM.

Question: Which IC50 does the source give for GAPLEPEYPGDNATPEQMARYAASLRRYINKLTRPRY [4060202] here?
Answer: The IC50 was 0.061 nM.

Question: Which IC50 does the source give for GAPLEPEAPGDNATPEQMAKYAAALRRYINKLTRPRY [4059977] here?
Answer: The IC50 was 0.095 nM.

Question: For HAPLKPTYPGDNATPEQLAKYAAELRRYINKLTRPRY [4059863], which IC50 is on record?
Answer: Its IC50 is 0.068 nM.

Question: For HAPLKPKAPGDNATPEQLAKYAAELRRYINKLTRPRY [4059861], which IC50 is on record?
Answer: The IC50 was 0.1 nM.

Question: PAPLKPKAPGDNATPEQLAKYAAELRRYINKLTRPRY [4059862] was tested. Which IC50 did it give?
Answer: Its IC50 is 0.071 nM.

Question: AAPLEPEYPGDNATPEQMAKYAASLRRYINKLTRPRY [4060146] was tested. Which IC50 did it give?
Answer: The IC50 was 0.106 nM.

Question: PAPLEPTYPGDDATPEQLAKYAAELRRYINKLTRPRY [4060208] was tested. Which IC50 did it give?
Answer: The IC50 was 0.126 nM.

Question: How did the IC50 turn out when YAPLKPEYPGDNATPEQLAKYAAELRRYINKLTRPRY [4059856] was run?
Answer: The IC50 was 0.08 nM.

Question: How did the IC50 turn out when PAPLKPEYPGDNATPEQLAKYAAELRRYINKLTRPRY [4059859] was run?
Answer: Its IC50 is 0.108 nM.

Question: How did the IC50 turn out when GAPLEPTYPGDNATPEQKAKYAAELRRYINKLTRPRY [4060204] was run?
Answer: The IC50 was 0.073 nM.

Question: How did the IC50 turn out when AAPLEPEAPGDNATPEQMAKYAAALRRYINKLTRPRY [4059976] was run?
Answer: Its IC50 is 0.122 nM.

Question: AAPLEPHYPGDNATPEQLARYYSELRRYINKLTRPRY [4059969] was tested. Which IC50 did it give?
Answer: The IC50 was 0.05 nM.

Question: How did the IC50 turn out when PAPLEPTYPGDNATPEQLAKYYSELRRYINHLTRPRY [4060273] was run?
Answer: The IC50 was 0.118 nM.

Question: For GAPLEPTYPGDNATPEQLAKYYSELRRYINHLTRPRY [4060272], which IC50 is on record?
Answer: Its IC50 is 0.095 nM.

Question: How did the IC50 turn out when GAPLEPVYPGDNATPEQMAKYYSELRRYINKLTRPRY [4060147] was run?
Answer: The IC50 was 0.077 nM.

Question: For AAPLEPVYPGDNATPEELARYAAELRRYINKLTRPRY [4060135], which IC50 is on record?
Answer: Its IC50 is 0.197 nM.

Question: For AAPLEPHYPGDNATPEEMARYYSELRRYINKLTRPRY [4059965], which IC50 is on record?
Answer: Its IC50 is 0.083 nM.

Question: For PAPLEPHYPGDNATPEQLARYYSELRRYINKLTRPRY [4059966], which IC50 is on record?
Answer: The IC50 was 0.053 nM.

Question: GAPLEPTYPGDNATPEQLARYYSELRRYINKLTRPRY [4060211] was tested. Which IC50 did it give?
Answer: The IC50 was 0.075 nM.

Question: DAPLEPVYPGDNATPEQMAKYYSELRRYINKLTRPRY [4060148] was tested. Which IC50 did it give?
Answer: Its IC50 is 0.095 nM.

Question: For GAPLEPHYPGDNATPEQLARYYSELRRYINKLTRPRY [4059967], which IC50 is on record?
Answer: Its IC50 is 0.064 nM.

Question: Which IC50 does the source give for AAPLEPVYPGDDATPQQMARYYSELRRYINKLTRPRY [4060214] here?
Answer: Its IC50 is 0.035 nM.

Question: How did the IC50 turn out when AAPLEPTYPGDNATPEQLARYYSELRRYINKLTRPRY [4060212] was run?
Answer: The IC50 was 0.067 nM.

Question: How did the IC50 turn out when PAPLEPHFPGDNATPEEMAKYAAELRRYINKLTRPRY [4059940] was run?
Answer: The IC50 was 0.115 nM.

Question: Which IC50 does the source give for PAPLEPHYPGDNATPEEMAKYAAELRRYINKITRPRY [4059943] here?
Answer: Its IC50 is 0.077 nM.

Question: For PAPLEPHYPGDNATPEEMAKYASELRRYINKLTRPRY [4059936], which IC50 is on record?
Answer: The IC50 was 0.118 nM.

Question: With GAPLEPHAPGDNATPEEMAKYAAELRRYINKLTRPRY (ends and bridges not checked) [compound of SEQ ID NO:1090 (code 4059937)] as the binder, how does the IC50 read?
Answer: Its IC50 is 0.209 nM.

Question: How did the IC50 turn out when PAPLEPTYPGDNATPEELARYAAELRRYINKLTRPRY [4060141] was run?
Answer: Its IC50 is 0.151 nM.

Question: How did the IC50 turn out when GAPLEPRYPGDNATPEEMAKYAAELRRYINKLTRPRY [4060144] was run?
Answer: The IC50 was 0.101 nM.

Question: GAPLEPHYPGDNATPEEMAKYAAELRRYINKITRPRY [4059942] was tested. Which IC50 did it give?
Answer: The IC50 was 0.073 nM.

Question: With PAPLEPEYPGDDATPEQMAKYAAELRRYINKLTRPRY [4060205] as the binder, how does the IC50 read?
Answer: Its IC50 is 0.112 nM.

Question: For PAPLEPTYPGDNATPEQKAKYAAELRRYINKLTRPRY [4060203], which IC50 is on record?
Answer: Its IC50 is 0.067 nM.

Question: How did the IC50 turn out when PAPLEPRYPGDNATPEEMAKYAAELRRYINKLTRPRY [4060143] was run?
Answer: The IC50 was 0.095 nM.

Question: How did the IC50 turn out when PAPLEPHYPGDNATPEEMAKYATELRRYINKLTRPRY [4059934] was run?
Answer: Its IC50 is 0.108 nM.

Question: Which IC50 does the source give for GAPLEPHFPGDNATPEEMAKYAAELRRYINKLTRPRY (ends and bridges not checked) [compound of SEQ ID NO:1092] here?
Answer: Its IC50 is 0.09 nM.

Question: For PAPLEPHYPGDNATPEELARYAAELRRYINKLTRPRY [4060139], which IC50 is on record?
Answer: The IC50 was 0.121 nM.

Question: For GAPLEPHYPGDNATPEEMAKYATELRRYINKLTRPRY [4059932], which IC50 is on record?
Answer: The IC50 was 0.085 nM.

Question: Which IC50 does the source give for DAPLEPRYPGDNATPEEMAKYAAELRRYINKLTRPRY [4060145] here?
Answer: Its IC50 is 0.173 nM.

Question: PAPLEPKYPGDNATPEELARYAAELRRYINKLTRPRY [4060138] was tested. Which IC50 did it give?
Answer: Its IC50 is 0.136 nM.

Question: How did the IC50 turn out when PAPLEPEAPGDNATPEQMAKYAAALRRYINKLTRPRY [4059974] was run?
Answer: The IC50 was 0.097 nM.

Question: How did the IC50 turn out when PAPLEPHAPGDNATPEEMAKYAAELRRYINKLTRPRY [4059938] was run?
Answer: Its IC50 is 0.128 nM.

Question: For PAPLEPHYPGDNATPEEMAKYAAELRRYLNKLTRPRY [4059951], which IC50 is on record?
Answer: The IC50 was 0.093 nM.

Question: For GAPLEPHYPGDNATPEEMAKYASELRRYINKLTRPRY [4059935], which IC50 is on record?
Answer: The IC50 was 0.081 nM.

Question: How did the IC50 turn out when GAPLEPHYPGDNATPEEMAKYAAELRRYINKVTRPRY [4059947] was run?
Answer: The IC50 was 0.066 nM.

Question: With DAPLEPEYPGDDATPEEMAKYAAELRRYINKLTRPRY [4059971] as the binder, how does the IC50 read?
Answer: The IC50 was 0.228 nM.

Question: For GAPLEPEYPGDNATPEQKARYAAALRRYINHLTRPRY [4060130], which IC50 is on record?
Answer: The IC50 was 0.072 nM.
